Source: patent US20240279618A1, “RECEPTOR TYROSINE KINASE AGONIST, COMPOSITION FOR CELL CULTURE MEDIUM, AND […] MAINTENANCE COMPOSITION” (SEKISUI CHEMICAL CO., LTD., priority 2021, published 2024)

B1: VHH Clone #1: alpaca-derived VHH single-domain antibody (monomer) binding FGFR1, amino acid sequence SEQ ID NO: 17 (protein)
VHH: QLQLVESGGGSVQAGGSLRLSCAASRSLSRFNVWTWYRQAPVKQRELVASITKSGDTNYAESVKGRFIISRDDDKNTVYLQMNNLKSEDTGIYYCAGSYYSGSYLYPSPGGFSVWGQGTQVTVSS
modifications: VHH_Clone_#1
B2: VHH Clone #2: alpaca-derived VHH single-domain antibody (monomer) binding FGFR1, amino acid sequence SEQ ID NO: 18 (protein)
VHH: QVQLVESGGGLVQAGGSLRLSCAVPGSIFRFNTMGWYRQPPGKQRELVAQMSRGGITKYGDSVKGRFTITRDNAKNTVHLQMNSLKPEDTAVYYCAGSYYSGSYYYPSPQGFSVWGQGTQVTVSP
modifications: VHH_Clone_#2
B3: #1-L4-#1: dimer of VHH #1 with linker L4 (GSEGKSSGSGSESKST), SEQ ID NO: 23 (protein)
VHH: QLQLVESGGGSVQAGGSLRLSCAASRSLSRFNVWTWYRQAPVKQRELVASITKSGDTNYAESVKGRFIISRDDDKNTVYLQMNNLKSEDTGIYYCAGSYYSGSYLYPSPGGFSVWGQGTQVTVSSGSEGKSSGSGSESKSTQLQLVESGGGSVQAGGSLRLSCAASRSLSRFNVWTWYRQAPVKQRELVASITKSGDTNYAESVKGRFIISRDDDKNTVYLQMNNLKSEDTGIYYCAGSYYSGSYLYPSPGGFSVWGQGTQVTVSS
modifications: #1-L4-#1

Legend:
iPS cells (253G1 cells) [1] = test: iPS cell culture: evaluation of preservation stability; assay type: cell-based, human; conditions: stock preserved 3 or 4 weeks at 4° C. versus −80° C.; 20 ng/mL
Experimental: Basic FGF and VHH stocks were collected in a 1.5 mL microtube 3 or 4 weeks before culturing, and preserved in a refrigerator (4° C.). Hereinafter, all operations were the same as those in the cell growth evaluation procedure, except that for basic FGF and VHH, a medium was prepared so that the both were preserved at 20 ng/mL using both refrigeration (4° C.)- and freeze (−80° C.)-preservation conditions.

iPS cells (253G1 cells) [2] = test: iPS cell culture: evaluation of undifferentiated state (immunostaining); assay type: cell-based, human; conditions: second passage, Day 6 (Culture day 20)
Experimental: The cells were cultured in the medium of each group for 3 to 5 weeks, and the following operations were performed on Days 4 to 7 of the passage. After washing the cells with D-PBS, 1 mL/well of 4% formaldehyde was added. After being left to stand for 30 minutes or longer, the solution was removed and washing was performed with D-PBS. 0.1% Triton X-100/D-PBS was added thereto and the mixture was left to stand at room temperature for 3 to 5 minutes. After washing with D-PBS, 1% of BSA/D-PBS was added thereto and the mixture was left to stand for 30 minutes.
An antibody for undifferentiation marker staining, such as OCT4 (Abcam, ab19857) or SSEA4 (Abcam, ab16287), was diluted in 1% BSA/D-PBS at an appropriate ratio, added to a well, which was left to stand for 30 to 60 minutes. After washing with D-PBS, secondary antibodies (a Goat anti-Rabbit IgG antibody (Abcam, ab 150115) and a Goat anti-Mouse IgG antibody (Abcam, ab150077)) were diluted in 1% BSA/D-PBS at an appropriate ratio and added to the wells, which were left to stand with light shielded with an aluminum foil for 30 to 60 minutes. DAPI (DOJINDO LABORATORIES, 340-07971) was diluted with 1% BSA/D-PBS to a concentration of 1 to 10 μg/mL, and added to each well, which was left to stand for 5 minutes. […] The image was acquired by observing the sample under a fluorescence microscope.

[3] = test system: human bone marrow-derived MSC; test: MSC culture: evaluation of MSC markers by flow cytometry; assay type: cell-based; conditions: MSC fourth passage, 10% or 20% FBS; for CD90-expressing (positive) cells: over the concentrations tested
Experimental: On Day 5 after the initial seeding, D-PBS was added to the cells and removed by suction. 500 μL of TrypLE Express was added to each well and the mixture was left to stand in a CO2 incubator for 5 to 10 minutes. The cells were observed under a microscope, and in a case where it was possible to confirm that the cells had changed in morphology, a medium was added thereto, and the cells were recovered in a PP tube by pipetting, and centrifuged (300× g, 5 minutes). After the centrifugation, the supernatant was removed by suction, an appropriate amount of 1% BSA/PBS was added to the pellet, and the mixture was pipetted to form a suspension.
A part of the suspension was collected and the number of cells was evaluated with a cell counter. Dilution was performed with 1% of BSA/PBS, so that the concentration was 0.6 to 1.0× 10^6 cells/mL. 50 μL of the mixture was dispensed into a 2 mL tube, so that the concentration was 3 to 5×10^4 cells/tube.
Equal amounts of the suspension subjected to the cell counter and the antibody solution adjusted above were mixed, and the mixture was left to stand on ice for 30 minutes or longer with light shielded. 1% of BSA/PBS was added thereto, the mixture was centrifuged (400 to 600×g, 5 minutes), and then the supernatant was removed by suction. Then, 300 to 500 μL of 1% BSA/PBS was added thereto, and the pipetted sample was subjected to flow cytometric analysis using an Attune NxT Flow Cytometer (Thermo Fisher Scientific, Inc.).

FGFR1-Fc = target: T1, FGFR1-Fc (Homo sapiens, UniProt P11362); test: Affinity measurement of VHH (monomer) by surface plasmon resonance (SPR); conditions: 1:1 binding model; for ka: 25° C.; for Kd: Biacore T200, 25° C., read-out: equilibrium dissociation constant (KD)
T1 construct: each consisting of an extracellular region of FGFR1; purchased R & D Systems 661-FR
T1 sequence (P11362 22-285 isoform P11362-14 limits assumed): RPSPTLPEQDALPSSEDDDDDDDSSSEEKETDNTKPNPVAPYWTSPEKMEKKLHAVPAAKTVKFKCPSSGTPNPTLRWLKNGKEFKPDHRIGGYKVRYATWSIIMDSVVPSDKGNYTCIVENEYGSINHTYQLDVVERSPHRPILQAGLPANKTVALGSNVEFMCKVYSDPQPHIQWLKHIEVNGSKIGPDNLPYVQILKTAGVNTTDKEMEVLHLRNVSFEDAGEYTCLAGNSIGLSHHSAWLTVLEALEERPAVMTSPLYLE
Experimental: Affinity measurement of VHH (monomer) was performed by a surface plasmon resonance (SPR) method.
The binding activity of VHH Clone #1 or VHH Clone #2 immobilized on Series S Sensor Chip CAP (manufactured by Cytiva) with respect to FGFR1-Fc was measured using Biacore (registered trademark) T200 (manufactured by Cytiva). Measurement was performed by CAP Single-cycle Kinetics. The temperature was set to 25° C. As a running buffer, 10 mM HEPES (pH 7.4) (Cytiva) including HBS-EP+(150 mM NaCl, 0.5 mM EDTA, and 0.05% surfactant P20) was used. The measurement order for each run is as follows.
1) Immobilization of biotinylated FGFR1-Fc: The flow rate was set to […], Biotin CAPture Reagent (Cytiva) was added thereto for 300 seconds, then the flow rate was set to […], and an FGFR1-Fc solution diluted with a running buffer was added thereto for 120 seconds to immobilize 140 RU. Here, the “resonance unit (RU)” is a unit used in the above-described Biacore, and a change of an SPR angle of 0.1° is defined as 1,000 RU.
2) Measurement of binding activity: The flow rate was set to 30 μL/mL, and VHH Clone #1 or VHH Clone #2 each diluted to 1.85 nM, 5.56 nM, 16.67 nM, or 50 nM, using a running buffer, was allowed to have an association time set to 120 seconds for binding and a dissociation time set to 600 seconds for interaction.
3) Regeneration of sensor chip surface: The flow rate was set to 10 μL/mL, a solution in which Reaneration stock 1 and Regeneration stock 2 (manufactured by Cytiva) were mixed at the ratio of 3:1 was added thereto for 120 seconds to extract the immobilized VHH. Next, analysis was performed with a 1:1 binding model using Biacore T200 Evaluation (software version 2.0, manufactured by Cytiva), and the binding activity was calculated.

Molecule | growth performance of iPS cells with additive preserved at 4° C. (iPS cells (253G1 cells) [1]) | undifferentiation markers OCT4 and SSEA4 (iPS cells (253G1 cells) [2]) | CD90-expressing cells ([3]; "at ng/mL" (figure not given)) | CD90-expressing (positive) cells [3] | ka (FGFR1-Fc) [M⁻¹ s⁻¹] | Kd (FGFR1-Fc) [nM]
FGF2: fibroblast growth factor (basic), human, recombinant (154aa), positive control; SEQ ID NO: 58 [reference compound] | growth performance was significantly deteriorated | positive | less than 95% | decreased in inverse proportion to the concentration |  | 
B1 |  |  |  |  | 8.19e+06 | 1.74
B2 |  |  |  |  | 1.11e+06 | 1.02
B3 | exhibited growth performance similar to that of VHH preserved at −80 °C | positive |  | ≥ 97% |  | 
